Test results taken from the supplement of paper PMC12855868.

B1: library; numbered along this chain (parent)
chain: MAAAGGARLLRAASAVLGGPAGRWLHHAGSRAGSSGLLRNRGPGGSAEASRSLSVSARARSSSEDKITVHFINRDGETLTTKGKVGDSLLDVVVENNLDIDGFGACEGTLACSTCHLIFEDHIYEKLDAITDEENDMLDLAYGLTDRSRLGCQICLTKSMDNMTVRVPETVADARQSIDVGKTS

Variants of: B1
Experiment: scaled log2 fold change in cell abundance, elesclomol vs control (0 = silent mean, 1 = nonsense mean) (scaled log2 ratio); higher = higher viability under elesclomol (loss of FDX1 cuproptosis function)
Conditions: glucose 10 mM
[1] = with ABC1 FDX1 KO, elesclomol 5 nM, 14 days
[2] = with HEK293T FDX1 KO, elesclomol 40 nM, 11 days
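Note: variant abundance is its share of total variant reads in each endpoint sample, from next-generation sequencing of the integrated ORF PCR-amplified out of genomic DNA.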

Row | Variant | scaled log2 fold change [1] | scaled log2 fold change [2]
1 | MAAAGGARLLRAASAVLGGPAGRWLHHAGSRAGSSGLLRNRGPGGSAEASRSLSVSARARSSSEDKITVHFINRDGETLTTKGKVGDSLLDVVVENNLDIDGFGACEGTLACSTMHLIFEDHIYEKLDAITDEENDMLDLAYGLTDRSRLGCQICLTKSMDNMTVRVPETVADARQSIDVGKTS [C115M] | 1.03 | 1.19
2 | MAAAGGARLLRAASAVLGGPAGRWLHHAGSRAGSSGLLRNRGPGGSAEASRSLSVSARARSSSEDKITVHFINRDGETLTTKGKVGDSLLDVVVENNLDIDGFGACEGTLACSTGHLIFEDHIYEKLDAITDEENDMLDLAYGLTDRSRLGCQICLTKSMDNMTVRVPETVADARQSIDVGKTS [C115G] | 1.06 | 1.1
3 | MAAAGGARLLRAASAVLGGPAGRWLHHAGSRAGSSGLLRNRGPGGSAEASRSLSVSARARSSSEDKITVHFINRDGETLTTKGKVGDSLLDVVVENNLDIDGFGACEGTLACSTFHLIFEDHIYEKLDAITDEENDMLDLAYGLTDRSRLGCQICLTKSMDNMTVRVPETVADARQSIDVGKTS [C115F] | 1 | 1.25
4 | MAAAGGARLLRAASAVLGGPAGRWLHHAGSRAGSSGLLRNRGPGGSAEASRSLSVSARARSSSEDKITVHFINRDGETLTTKGKVGDSLLDVVVENNLDIDGFGACEGTLACSTWHLIFEDHIYEKLDAITDEENDMLDLAYGLTDRSRLGCQICLTKSMDNMTVRVPETVADARQSIDVGKTS [C115W] | 1.1 | 1.36
5 | MAAAGGARLLRAASAVLGGPAGRWLHHAGSRAGSSGLLRNRGPGGSAEASRSLSVSARARSSSEDKITVHFINRDGETLTTKGKVGDSLLDVVVENNLDIDGFGACEGTLACSTLHLIFEDHIYEKLDAITDEENDMLDLAYGLTDRSRLGCQICLTKSMDNMTVRVPETVADARQSIDVGKTS [C115L] | 1.09 | 1.15
6 | MAAAGGARLLRAASAVLGGPAGRWLHHAGSRAGSSGLLRNRGPGGSAEASRSLSVSARARSSSEDKITVHFINRDGETLTTKGKVGDSLLDVVVENNLDIDGFGACEGTLACSTQHLIFEDHIYEKLDAITDEENDMLDLAYGLTDRSRLGCQICLTKSMDNMTVRVPETVADARQSIDVGKTS [C115Q] | 0.93 | 1.07
7 | MAAAGGARLLRAASAVLGGPAGRWLHHAGSRAGSSGLLRNRGPGGSAEASRSLSVSARARSSSEDKITVHFINRDGETLTTKGKVGDSLLDVVVENNLDIDGFGACEGTLACSTPHLIFEDHIYEKLDAITDEENDMLDLAYGLTDRSRLGCQICLTKSMDNMTVRVPETVADARQSIDVGKTS [C115P] | 1.1 | 1.51
8 | MAAAGGARLLRAASAVLGGPAGRWLHHAGSRAGSSGLLRNRGPGGSAEASRSLSVSARARSSSEDKITVHFINRDGETLTTKGKVGDSLLDVVVENNLDIDGFGACEGTLACSTHHLIFEDHIYEKLDAITDEENDMLDLAYGLTDRSRLGCQICLTKSMDNMTVRVPETVADARQSIDVGKTS [C115H] | 0.953 | 1.29
9 | MAAAGGARLLRAASAVLGGPAGRWLHHAGSRAGSSGLLRNRGPGGSAEASRSLSVSARARSSSEDKITVHFINRDGETLTTKGKVGDSLLDVVVENNLDIDGFGACEGTLACSTRHLIFEDHIYEKLDAITDEENDMLDLAYGLTDRSRLGCQICLTKSMDNMTVRVPETVADARQSIDVGKTS [C115R] | 1.02 | 1.68
10 | MAAAGGARLLRAASAVLGGPAGRWLHHAGSRAGSSGLLRNRGPGGSAEASRSLSVSARARSSSEDKITVHFINRDGETLTTKGKVGDSLLDVVVENNLDIDGFGACEGTLACSTVHLIFEDHIYEKLDAITDEENDMLDLAYGLTDRSRLGCQICLTKSMDNMTVRVPETVADARQSIDVGKTS [C115V] | 1.07 | 1.37
11 | MAAAGGARLLRAASAVLGGPAGRWLHHAGSRAGSSGLLRNRGPGGSAEASRSLSVSARARSSSEDKITVHFINRDGETLTTKGKVGDSLLDVVVENNLDIDGFGACEGTLACSTYHLIFEDHIYEKLDAITDEENDMLDLAYGLTDRSRLGCQICLTKSMDNMTVRVPETVADARQSIDVGKTS [C115Y] | 1.1 | 0.829
12 | MAAAGGARLLRAASAVLGGPAGRWLHHAGSRAGSSGLLRNRGPGGSAEASRSLSVSARARSSSEDKITVHFINRDGETLTTKGKVGDSLLDVVVENNLDIDGFGACEGTLACSTTHLIFEDHIYEKLDAITDEENDMLDLAYGLTDRSRLGCQICLTKSMDNMTVRVPETVADARQSIDVGKTS [C115T] | 1.13 | 0.783
13 | MAAAGGARLLRAASAVLGGPAGRWLHHAGSRAGSSGLLRNRGPGGSAEASRSLSVSARARSSSEDKITVHFINRDGETLTTKGKVGDSLLDVVVENNLDIDGFGACEGTLACSTSHLIFEDHIYEKLDAITDEENDMLDLAYGLTDRSRLGCQICLTKSMDNMTVRVPETVADARQSIDVGKTS [C115S] | 1.09 | 1.13
14 | MAAAGGARLLRAASAVLGGPAGRWLHHAGSRAGSSGLLRNRGPGGSAEASRSLSVSARARSSSEDKITVHFINRDGETLTTKGKVGDSLLDVVVENNLDIDGFGACEGTLACSTNHLIFEDHIYEKLDAITDEENDMLDLAYGLTDRSRLGCQICLTKSMDNMTVRVPETVADARQSIDVGKTS [C115N] | 0.976 | 1.34
15 | MAAAGGARLLRAASAVLGGPAGRWLHHAGSRAGSSGLLRNRGPGGSAEASRSLSVSARARSSSEDKITVHFINRDGETLTTKGKVGDSLLDVVVENNLDIDGFGACEGTLACSTKHLIFEDHIYEKLDAITDEENDMLDLAYGLTDRSRLGCQICLTKSMDNMTVRVPETVADARQSIDVGKTS [C115K] | 1.02 | 0.763
16 | MAAAGGARLLRAASAVLGGPAGRWLHHAGSRAGSSGLLRNRGPGGSAEASRSLSVSARARSSSEDKITVHFINRDGETLTTKGKVGDSLLDVVVENNLDIDGFGACEGTLACSTIHLIFEDHIYEKLDAITDEENDMLDLAYGLTDRSRLGCQICLTKSMDNMTVRVPETVADARQSIDVGKTS [C115I] | 1.04 | 0.907
